Experimental data as given in US20250075002A1 (BEIGENE SWITZERLAND, published 2025).

Experiments:
human CD16A-His6 (F158) [1] = biological target: T1, human CD16A-His6 (F158) (human, UniProt P08637 17-208); assay: SPR; BG1222P captured by biotin anti-human Fc VHH on neutravidin, analyte in solution
T1 construct: Bought ECD fragment; also called human CD16A (F158); not shown: six-histidine tag (His6)

human CD16A-His6 (V158) [2] = biological target: T2, human CD16A-His6 (V158) (human, UniProt P08637 17-208); assay: as above
T2 construct: Bought (Sino Biologics) ECD fragment; also called CD16A 158V; human CD16A (V158); not shown: six-histidine tag (His6)

[3] = biological target: T3, human CD16A (V158) on NK92mi cells (human, UniProt P08637 17-254); assay: flow cytometry, biotinylated antibody on NK92mi/CD16A V158 cells, w/o huIgG
T3 construct: NK92mi cells co-transduced with CD16A (V158) and FcRgamma cDNAs; also called NK92mi/CD16A V158; NK92mi/CD16A

[4] = biological target: T3, human CD16A (V158) on NK92mi cells; assay: flow cytometry, biotinylated antibody on NK92mi/CD16A V158 cells, with 10 mg/ml huIgG1 as competitor
human CD16A-His6 (F158) [5] = biological target: T1, human CD16A-His6 (F158); assay: SPR; BG1222P captured by biotin anti-human Fc VHH on neutravidin; column head prints 'KD (nM)', koff/kon shows M
human CD16A-His6 (V158) [6] = biological target: T2, human CD16A-His6 (V158); assay: as above
[7] = biological target: T4, human CD16A (F158) on NK92mi cells (human, UniProt P08637 17-254); assay: flow cytometry, biotinylated antibody on NK92mi/CD16A F158 cells, w/o huIgG
T4 construct: NK92mi cells co-transduced with CD16A (F158) and FcRgamma cDNAs; also called NK92mi/CD16A F158

[8] = biological target: T4, human CD16A (F158) on NK92mi cells; assay: flow cytometry, biotinylated antibody on NK92mi/CD16A F158 cells, with 10 mg/ml huIgG1 as competitor

T2 sequence (P08637 17-208 F176V): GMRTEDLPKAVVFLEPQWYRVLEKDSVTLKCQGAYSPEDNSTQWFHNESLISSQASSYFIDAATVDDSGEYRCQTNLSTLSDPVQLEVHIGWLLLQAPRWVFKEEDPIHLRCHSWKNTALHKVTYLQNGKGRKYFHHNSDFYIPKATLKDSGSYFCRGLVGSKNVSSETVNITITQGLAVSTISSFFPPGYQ
T1 sequence (P08637 17-208): as the sequence (P08637 17-208 F176V) above, with V160F counted along it
T3 sequence (P08637 17-254 F176V limits assumed): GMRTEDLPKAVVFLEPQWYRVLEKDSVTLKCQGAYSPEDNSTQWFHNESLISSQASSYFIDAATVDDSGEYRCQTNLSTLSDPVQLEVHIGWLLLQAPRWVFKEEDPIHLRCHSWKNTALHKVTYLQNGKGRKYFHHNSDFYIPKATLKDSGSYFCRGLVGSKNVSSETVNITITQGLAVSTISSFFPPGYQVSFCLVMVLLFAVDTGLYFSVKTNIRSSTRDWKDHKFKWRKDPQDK
T4 sequence (P08637 17-254 limits assumed): as the sequence (P08637 17-254 F176V limits assumed) above, with V160F counted along it

B1: MUC1×CD16A multi-specific antibody BG1222P (bispecific antibody, human IgG1, kappa)
chain: EVQLVESGGGLVQPGGSLRLSCAASGRTFGSYAVGWFRQAPGKGREFVAAIRRSDATTDYVDSVKGRFTISRDNAKNTVYLQMNSLKPEDTAVYYCAASDSDYEPLGDYWGQGTLVTVSSGGGGSGGGGSEVQLVESGGGLVQPGGSLRLSCAASGRTFGSYAVGWFRQAPGKGREFVAAIRRSDATTDYVDSVKGRFTISRDNAKNTVYLQMNSLKPEDTAVYYCAASDSDYEPLGDYWGQGTLVTVSSEPKSSDKTHTCPPCPAPELLGGPSVFLFPPKPKDTLYITREPEVTCVVVDVSHEDPEVKFNWYVDGVEVHNAKTKPREEQYNSTYRVVSVLTVLHQDWLNGKEYKCKVSNKALPAPIEKTISKAKGQPREPQVYTLPPSREEMTKNQVSLWCLVKGFYPSDIAVEWESNGQPENNYKTTPPVLDSDGSFFLYSKLTVDKSRWQQGNVFSCSVMHEALHNHYTQKSLSLSPGK
heavy: EVQLLESGGGLVQPGGSLRLSCAASGFTFNDYIMSWVRQAPGKGLEWVATVSSGGDNTYYPDSVKGRFTISRDNSKNTLYLQMNSLRAEDTAVYYCTRYGGLGAMDYWGQGTLVTVSSASTKGPSVFPLAPSSKSTSGGTAALGCLVKDYFPEPVTVSWNSGALTSGVHTFPAVLQSSGLYSLSSVVTVPSSSLGTQTYICNVNHKPSNTKVDKKVEPKSCDKTHTCPPCPAPELLGGPSVFLFPPKPKDTLYITREPEVTCVVVDVSHEDPEVKFNWYVDGVEVHNAKTKPREEQYNSTYRVVSVLTVLHQDWLNGKEYKCKVSNKALPAPIEKTISKAKGQPREPQVYTLPPSREEMTKNQVSLSCAVKGFYPSDIAVEWESNGQPENNYKTTPPVLDSDGSFFLVSKLTVDKSRWQQGNVFSCSVMHEALHNHYTQKSLSLSPGK
light: DIQMTQSPSSLSASVGDRVTITCRASGNIHNYLTWYQQKPGKAPKLLIYNAKTLASGVPSRFSGSGSGTDFTLTISSLQPEDFATYYCQHFWSVPYTFGQGTKLEIKRTVAAPSVFIFPPSDEQLKSGTASVVCLLNNFYPREAKVQWKVDNALQSGNSQESVTEQDSKDSTYSLSSTLTLSKADYEKHKVYACEVTHQGLSSPVTKSFNRGEC
notes: '2+1' IgG-like format: chain 1 = tandem BG526P VHHs-hinge-Fc (knob), chain 2 = huBG219P-E39 heavy chain (hole), chain 3 = huBG219P-E39 kappa light chain; YTE mutations in both Fc; also called BG11222P
koff (human CD16A-His6 (F158) [1]): 8.52e-05 s⁻¹ | kon (human CD16A-His6 (F158) [1]): 579000 M⁻¹ s⁻¹ | koff (human CD16A-His6 (V158) [2]): 4.22e-05 s⁻¹ | kon (human CD16A-His6 (V158) [2]): 886000 M⁻¹ s⁻¹ | EC50 [3]: 0.35 nM | EC50 [4]: 33.9 nM | Kd (human CD16A-His6 (F158) [5]): 0.147 nM | Kd (human CD16A-His6 (V158) [6]): 0.0477 nM | EC50 [7]: 0.97 nM | EC50 [8]: 7.99 nM
